Reference: paper PMC9482650, “Quantitative fragmentomics allow affinity mapping of interactomes” (Nature Communications, 2022)

T1: SNTA1, Q13424
T1 sequence (Q13424 82-180, limits assumed, looked up): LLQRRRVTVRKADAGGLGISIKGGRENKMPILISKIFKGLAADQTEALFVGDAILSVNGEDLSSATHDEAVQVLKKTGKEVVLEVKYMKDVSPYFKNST

T2: TIAM2, Q8IVF5
T2 sequence (Q8IVF5 885-986, limits assumed, looked up): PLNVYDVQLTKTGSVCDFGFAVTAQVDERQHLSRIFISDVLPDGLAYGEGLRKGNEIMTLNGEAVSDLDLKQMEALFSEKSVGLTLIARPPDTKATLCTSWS

T3: LIN7C, Q9NUP9
T3 sequence (Q9NUP9 88-185, limits assumed, looked up): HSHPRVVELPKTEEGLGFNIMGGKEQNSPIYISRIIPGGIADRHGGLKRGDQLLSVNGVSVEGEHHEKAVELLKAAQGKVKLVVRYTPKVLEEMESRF

T4: APBA3_1, O96018
T4 sequence (O96018 389-490, limits assumed, looked up): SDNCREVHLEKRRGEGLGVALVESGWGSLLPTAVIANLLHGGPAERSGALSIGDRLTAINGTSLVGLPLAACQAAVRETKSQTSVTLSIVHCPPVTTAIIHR

T5: HTRA3, P83110
T5 sequence (P83110 354-453, limits assumed, looked up): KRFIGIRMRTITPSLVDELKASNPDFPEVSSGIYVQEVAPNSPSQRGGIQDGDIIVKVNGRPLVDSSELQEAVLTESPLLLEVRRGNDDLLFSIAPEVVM

T6: GRIP1_7, Q9Y3R0
T6 sequence (Q9Y3R0 999-1096, limits assumed, looked up): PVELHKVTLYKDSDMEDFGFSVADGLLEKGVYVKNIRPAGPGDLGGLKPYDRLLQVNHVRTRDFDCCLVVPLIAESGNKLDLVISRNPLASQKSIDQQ

T7: SNTG2, Q9NY99
T7 sequence (Q9NY99 68-166, limits assumed, looked up): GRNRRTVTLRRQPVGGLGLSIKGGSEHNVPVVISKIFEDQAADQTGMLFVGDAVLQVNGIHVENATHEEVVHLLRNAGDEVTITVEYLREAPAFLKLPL

T8: SYNJ2BP, P57105
T8 sequence (P57105 8-110, limits assumed, looked up): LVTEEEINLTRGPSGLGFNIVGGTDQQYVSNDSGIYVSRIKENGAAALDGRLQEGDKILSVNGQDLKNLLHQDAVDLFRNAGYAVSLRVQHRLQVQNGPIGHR

T9: MPDZ_12, O75970
T9 sequence (O75970 1857-1958, limits assumed, looked up): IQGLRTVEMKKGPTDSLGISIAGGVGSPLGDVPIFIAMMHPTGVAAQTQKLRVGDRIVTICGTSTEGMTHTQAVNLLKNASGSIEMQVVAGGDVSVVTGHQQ

T10: CARD11, Q9BXL7
T10 sequence (Q9BXL7 662-765, limits assumed, looked up): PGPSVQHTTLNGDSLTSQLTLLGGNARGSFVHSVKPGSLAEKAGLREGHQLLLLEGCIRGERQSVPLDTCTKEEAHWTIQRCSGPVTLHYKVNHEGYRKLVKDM


Tests used:
Assay in all cases: holdup assay
Parameters in all cases: key: below the threshold = too weak to quantify, mostly under pKd 3.1 to 4
Settings in all cases: plain residues with an end cap or a label only (N-terminal biotin on a linker: ttds)
FRMPD2_2, Q68DX3 = target: FRMPD2_2, Q68DX3
MAGI2_2, Q86UL8 = target: MAGI2_2, Q86UL8
SCRIB_1, Q14160 = target: SCRIB_1, Q14160
DLG4_3, P78352 = target: DLG4_3, P78352
MAGI2_5, Q86UL8 = target: MAGI2_5, Q86UL8
LDB3, O75112 = target: LDB3, O75112
AHNAK1, Q09666 = target: AHNAK1, Q09666
SNTA1, Q13424 = target: T1, SNTA1, Q13424
GORASP1, Q9BQQ3 = target: GORASP1, Q9BQQ3
GRID2IP_2, A4D2P6 = target: GRID2IP_2, A4D2P6
TIAM2, Q8IVF5 = target: T2, TIAM2, Q8IVF5
LIN7C, Q9NUP9 = target: T3, LIN7C, Q9NUP9
APBA3_1, O96018 = target: T4, APBA3_1, O96018
HTRA3, P83110 = target: T5, HTRA3, P83110
GRIP1_7, Q9Y3R0 = target: T6, GRIP1_7, Q9Y3R0
HTRA2, O43464 = target: HTRA2, O43464
MAST1, Q9Y2H9 = target: MAST1, Q9Y2H9
GRIP2_7, Q9C0E4 = target: GRIP2_7, Q9C0E4
DLG2_2, Q15700 = target: DLG2_2, Q15700
GRIP2_5, Q9C0E4 = target: GRIP2_5, Q9C0E4
GRID2IP_1, A4D2P6 = target: GRID2IP_1, A4D2P6
SNTG2, Q9NY99 = target: T7, SNTG2, Q9NY99
SYNJ2BP, P57105 = target: T8, SYNJ2BP, P57105
MPDZ_12, O75970 = target: T9, MPDZ_12, O75970
DLG1_3, Q12959 = target: DLG1_3, Q12959
GORASP2, Q9H8Y8 = target: GORASP2, Q9H8Y8
CARD11, Q9BXL7 = target: T10, CARD11, Q9BXL7
NHERF2_2, Q15599 = target: NHERF2_2, Q15599
Sequence of NHERF2_2, Q15599 (Q15599 142-238): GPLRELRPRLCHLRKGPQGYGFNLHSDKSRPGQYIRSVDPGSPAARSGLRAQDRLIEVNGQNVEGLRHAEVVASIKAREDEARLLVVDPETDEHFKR

Sequence of MAGI2_5, Q86UL8 (Q86UL8 915-1017): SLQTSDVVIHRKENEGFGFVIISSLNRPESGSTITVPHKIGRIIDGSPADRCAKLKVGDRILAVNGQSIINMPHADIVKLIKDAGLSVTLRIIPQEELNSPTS
Sequence of FRMPD2_2, Q68DX3 (Q68DX3 944-1038): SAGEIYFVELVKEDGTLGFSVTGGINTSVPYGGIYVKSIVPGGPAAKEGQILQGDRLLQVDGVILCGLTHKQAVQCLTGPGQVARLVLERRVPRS
Sequence of LDB3, O75112 (O75112 1-94): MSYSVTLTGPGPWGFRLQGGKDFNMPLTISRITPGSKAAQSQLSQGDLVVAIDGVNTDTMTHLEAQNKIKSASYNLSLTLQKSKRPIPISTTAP
Sequence of DLG1_3, Q12959 (Q12959 457-571): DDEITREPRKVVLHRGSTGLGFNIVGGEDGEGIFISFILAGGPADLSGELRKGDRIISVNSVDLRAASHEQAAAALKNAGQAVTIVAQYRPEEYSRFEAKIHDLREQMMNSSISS
Sequence of GRID2IP_1, A4D2P6 (A4D2P6 1-87): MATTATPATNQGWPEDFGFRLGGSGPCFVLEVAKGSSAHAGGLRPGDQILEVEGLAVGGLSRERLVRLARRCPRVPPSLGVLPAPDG
Sequence of DLG2_2, Q15700 (Q15700 189-283): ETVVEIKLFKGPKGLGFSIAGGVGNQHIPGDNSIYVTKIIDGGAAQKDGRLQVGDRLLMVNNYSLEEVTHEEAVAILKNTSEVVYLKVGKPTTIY
Sequence of GRIP2_7, Q9C0E4 (Q9C0E4 934-1023): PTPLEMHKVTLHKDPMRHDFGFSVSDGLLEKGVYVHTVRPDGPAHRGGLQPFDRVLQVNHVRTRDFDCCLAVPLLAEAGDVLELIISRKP
Sequence of MAST1, Q9Y2H9 (Q9Y2H9 962-1065): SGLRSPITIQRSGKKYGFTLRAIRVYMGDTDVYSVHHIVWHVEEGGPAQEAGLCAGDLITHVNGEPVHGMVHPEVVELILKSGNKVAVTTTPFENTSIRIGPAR
Sequence of GRID2IP_2, A4D2P6 (A4D2P6 272-370): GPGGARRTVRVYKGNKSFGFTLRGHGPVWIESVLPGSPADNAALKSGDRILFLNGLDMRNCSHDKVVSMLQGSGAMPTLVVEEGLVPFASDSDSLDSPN
Sequence of GRIP2_5, Q9C0E4 (Q9C0E4 544-642): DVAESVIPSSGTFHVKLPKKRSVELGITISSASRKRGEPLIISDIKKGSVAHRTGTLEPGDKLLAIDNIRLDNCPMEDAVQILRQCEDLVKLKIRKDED
Sequence of MAGI2_2, Q86UL8 (Q86UL8 410-522): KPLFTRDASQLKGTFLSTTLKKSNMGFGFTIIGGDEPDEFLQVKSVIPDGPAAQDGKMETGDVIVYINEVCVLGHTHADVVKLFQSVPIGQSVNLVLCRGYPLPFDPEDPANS
Sequence of DLG4_3, P78352 (P78352 306-403): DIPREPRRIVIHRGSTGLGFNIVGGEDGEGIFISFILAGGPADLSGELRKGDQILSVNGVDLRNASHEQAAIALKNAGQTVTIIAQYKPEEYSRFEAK
Sequence of SCRIB_1, Q14160 (Q14160 718-814): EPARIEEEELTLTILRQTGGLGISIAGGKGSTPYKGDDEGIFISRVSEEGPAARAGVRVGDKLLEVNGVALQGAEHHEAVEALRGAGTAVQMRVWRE
Sequence of AHNAK1, Q09666 (Q09666 4-100): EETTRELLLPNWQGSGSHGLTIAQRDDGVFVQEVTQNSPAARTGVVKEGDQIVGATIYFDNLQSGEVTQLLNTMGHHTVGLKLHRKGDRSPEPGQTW
Sequence of GORASP1, Q9BQQ3 (Q9BQQ3 1-208): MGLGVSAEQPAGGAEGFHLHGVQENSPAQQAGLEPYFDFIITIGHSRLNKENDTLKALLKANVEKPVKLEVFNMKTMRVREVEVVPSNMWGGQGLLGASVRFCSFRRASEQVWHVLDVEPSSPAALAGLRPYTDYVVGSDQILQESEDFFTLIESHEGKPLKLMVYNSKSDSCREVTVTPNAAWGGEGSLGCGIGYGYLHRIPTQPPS
Sequence of HTRA2, O43464 (O43464 355-458): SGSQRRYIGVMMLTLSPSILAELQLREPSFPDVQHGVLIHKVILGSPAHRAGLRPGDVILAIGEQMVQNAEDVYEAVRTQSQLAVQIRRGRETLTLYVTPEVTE

| pKd (FRMPD2_2, Q68DX3) | pKd (MAGI2_2, Q86UL8) | pKd (SCRIB_1, Q14160) | pKd (DLG4_3, P78352) | pKd (MAGI2_5, Q86UL8) | pKd (LDB3, O75112) | pKd (AHNAK1, Q09666) | pKd (SNTA1, Q13424) | pKd (GORASP1, Q9BQQ3) | pKd (GRID2IP_2, A4D2P6) | pKd (TIAM2, Q8IVF5) | pKd (LIN7C, Q9NUP9) | pKd (APBA3_1, O96018) | pKd (HTRA3, P83110) | pKd (GRIP1_7, Q9Y3R0) | pKd (HTRA2, O43464) | pKd (MAST1, Q9Y2H9) | pKd (GRIP2_7, Q9C0E4) | pKd (DLG2_2, Q15700) | pKd (GRIP2_5, Q9C0E4) | Binder | other results |
| --- | --- | --- | --- | --- | --- | --- | --- | --- | --- | --- | --- | --- | --- | --- | --- | --- | --- | --- | --- | --- | --- |
| below the threshold | 3.77 | 5.54 | 3.59 | 3.52 | below the threshold | below the threshold | 4.14 | below the threshold | 4.02 | below the threshold | 3.81 | below the threshold | below the threshold | below the threshold | below the threshold | 5.32 | below the threshold | below the threshold | below the threshold | KKYVDAETSL [SLC4A7, Q9Y6M7] | pKd (GRID2IP_1, A4D2P6): below the threshold; pKd (SNTG2, Q9NY99): 4.33; pKd (SYNJ2BP, P57105): 4.28; pKd (MPDZ_12, O75970): below the threshold; pKd (DLG1_3, Q12959): 3.75; pKd (GORASP2, Q9H8Y8): below the threshold; pKd (CARD11, Q9BXL7): below the threshold; pKd (NHERF2_2, Q15599): 4.62 |
| below the threshold | 3.63 | 4.64 | below the threshold | 3.67 | below the threshold | below the threshold | 4.07 | below the threshold | below the threshold | below the threshold | below the threshold | below the threshold | below the threshold | below the threshold | below the threshold | 4.85 | below the threshold | below the threshold | below the threshold | DKDPHSETAL [TMIGD1, Q6UXZ0] | pKd (GRID2IP_1, A4D2P6): below the threshold; pKd (SNTG2, Q9NY99): 4.06; pKd (SYNJ2BP, P57105): 4.42; pKd (MPDZ_12, O75970): below the threshold; pKd (DLG1_3, Q12959): below the threshold; pKd (GORASP2, Q9H8Y8): below the threshold; pKd (CARD11, Q9BXL7): below the threshold; pKd (NHERF2_2, Q15599): 4.66 |
